T1: ACADVL (mouse), P50544
T1 chain: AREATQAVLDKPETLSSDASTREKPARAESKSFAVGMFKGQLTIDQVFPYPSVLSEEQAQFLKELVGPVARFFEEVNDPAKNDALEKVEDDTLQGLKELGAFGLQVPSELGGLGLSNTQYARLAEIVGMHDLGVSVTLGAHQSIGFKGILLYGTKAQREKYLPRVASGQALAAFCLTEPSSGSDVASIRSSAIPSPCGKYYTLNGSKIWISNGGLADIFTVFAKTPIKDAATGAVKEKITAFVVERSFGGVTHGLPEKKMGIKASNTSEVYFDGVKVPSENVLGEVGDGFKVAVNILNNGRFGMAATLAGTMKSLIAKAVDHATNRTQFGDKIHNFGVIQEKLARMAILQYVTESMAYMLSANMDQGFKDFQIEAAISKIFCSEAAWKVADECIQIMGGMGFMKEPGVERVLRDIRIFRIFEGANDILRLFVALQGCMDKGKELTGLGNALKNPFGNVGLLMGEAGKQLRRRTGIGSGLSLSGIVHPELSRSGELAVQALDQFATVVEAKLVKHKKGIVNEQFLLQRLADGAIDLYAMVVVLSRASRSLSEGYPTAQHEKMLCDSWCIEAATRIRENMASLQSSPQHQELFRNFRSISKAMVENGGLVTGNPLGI

B1: ACADVL, P50544 42-656 (natural protein)
chain: T1 chain

Key:
[1] = target: complex I from ndufs4-/- mouse (heart, kidney) (mouse) (UniProt Q91YT0); test: cryo-EM structure; complex I purified whole from ndufs4-/- mouse heart, cross-linked twice with BS3 (0.25 mM during solubilisation, 2.5 mM before the grids), 0.05% DDM, PEGylated gold grids; focused classification into three classes
ACADVL (mouse), P50544 = target: T1, ACADVL (mouse), P50544; test: as above; settings: remark: other sources report otherwise

Sequence of UniProt Q91YT0 (Q91YT0 whole entry, looked up, one chain of several): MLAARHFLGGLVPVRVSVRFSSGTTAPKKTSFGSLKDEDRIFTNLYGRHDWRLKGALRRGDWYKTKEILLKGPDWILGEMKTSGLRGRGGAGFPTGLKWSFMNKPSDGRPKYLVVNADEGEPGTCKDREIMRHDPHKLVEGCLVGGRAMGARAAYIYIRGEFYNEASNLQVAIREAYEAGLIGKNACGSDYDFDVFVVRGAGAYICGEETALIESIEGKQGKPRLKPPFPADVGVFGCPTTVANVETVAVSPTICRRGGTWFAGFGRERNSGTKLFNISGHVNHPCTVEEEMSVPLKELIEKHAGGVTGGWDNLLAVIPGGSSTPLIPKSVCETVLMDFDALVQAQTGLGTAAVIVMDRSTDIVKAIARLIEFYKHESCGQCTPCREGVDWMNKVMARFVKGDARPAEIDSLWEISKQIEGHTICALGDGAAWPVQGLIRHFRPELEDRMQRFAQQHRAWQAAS

Row | Molecule | percent of the complex I particles that contain it [1] [%] | stoichiometry N (ACADVL (mouse), P50544)
1 | assembly factor NDUFAF2 (natural protein) | 14 | –
2 | B1 | – | 2

From PMC10897435
